Test results taken from the RNAGym collection of RNA variant scans (doi:10.1021/acssynbio.7b00057).

B1: Pistol ribozyme (parent)
chain: GGGUCGUUGUUCCAUAAUCGCGUGGAUAUGGCACGCAAGUUUCUACCGGGCACCGUAAAUGUCCGACUGGAGCCGUUCGGGCGGCUAUAAACAGACCUCAGGCCCGAAGCGUGGCGGCACCUGCCGCCGGUGGUAAAAAAGAUCGGAAGAGCACACGUCU

Variants of: B1
Assay: aptazyme ON/OFF ratio, guanine; higher = stronger switching; co-transcriptional cleavage with and without guanine

Variant | aptazyme ON/OFF ratio
U7C G9A U10A U11G C13G | 1.02
U7C G9A U10A U11G C13A | 1.07
U7C G9A U10A U11G C13U | 1.25
U7A U10G | 1.56
U7C G9A U10A U11A | 1.19
U7C G9A U10A U11C | 1.09
U7C G9A U10A U11G | 1.27
U7C G9A U10A U11A C13U | 1.16
U7C G9A U10A U11A C13G | 1.04
U7C G9A U10A U11A C13A | 1.08
U7C G9A U10A C12A C13G | 1.14
U7C G9A U10A C12A C13A | 1.17
U7C G9A U10A C12A C13U | 1.05
U7C G9A U10A U11C C13U | 1.07
U7C G9A U10A U11C C13G | 1.04
U7C G9A U10A U11C C13A | 1.03
U7C G9A U10G C12U C13U | 1.11
U7C G9A U10G C12U C13A | 1.2
U7C G9A U10G C12U C13G | 1.17
U7C C12A C13G | 1.1
U7C C12A C13U | 1.19
U7C C12A C13A | 1.16
U7C G9A U10A U11A C12U C13G | 1.25
U7C G9A U10A U11A C12U C13A | 1.18

Variant | aptazyme ON/OFF ratio
U7C G9A U10A U11A C12U C13U | 1.19
U7C G9A U10G U11A | 1.06
U7C G9A U10C U11G C12A C13G | 1.15
U7C G9A U10C U11G C12A C13U | 1.08
U7C G9A U10C U11G C12A C13A | 1.21
U7A U10C U11A C12G C13U | 1.29
U7A U11C C12A C13A | 1.35
U7A U11C C12A C13G | 1.22
U7A U11C C12A C13U | 1.19
U7A U11G C13G | 1.05
U7A U11G C13A | 1.03
U7A U11G C13U | 1.04
U7A U10G U11A C12U C13U | 1.07
U7A U10G U11A C12U C13A | 1.29
U7A U10G U11A C12U C13G | 1.13
U7C C13G | 1.05
U7C C13A | 1.14
U7C C13U | 1.18
U7C G9A U10A U11C C12U C13U | 1.23
U7C G9A U10A U11C C12U C13G | 1.05
U7C G9A U10A U11C C12U C13A | 1.24
U7A U10G U11C C13U | 1.05
U7A U10G U11C C13G | 1.08
U7A U10G U11C C13A | 1.07

Variant | aptazyme ON/OFF ratio
U7A U10C U11G C12A | 1.08
U7A U10C U11G C12G | 1.26
U7A U10C U11G C12U | 1.24
U7C G9A U10C U11C C12A | 1.34
U7C G9A U10C U11C C12G | 1.2
U7C G9A U10C U11C C12U | 1.05
U7C G9A U10C U11A C12U C13A | 1.21
U7C G9A U10C U11A C12U C13G | 1.22
U7C G9A U10C U11A C12U C13U | 1.39
U7A U10G U11G C12G C13U | 1.22
U7A U10G U11G C12G C13A | 1.11
U7A U10G U11G C12G C13G | 1.28
U7C G9A U10C U11C C12A C13A | 1.07
U7C G9A U10C U11C C12A C13U | 1.16
U7C G9A U10C U11C C12A C13G | 1.15
U7C G9A U10C U11C C13G | 1.02
U7C G9A U10C U11C C13U | 1.03
U7C G9A U10C U11C C13A | 1.01
U7A U11C C12U C13U | 1.38
U7A U11C C12U C13A | 1.27
U7A U11C C12U C13G | 1.38
U7C G9A U10G C12G C13G | 1.1
U7C G9A U10G C12G C13U | 1.15
U7C G9A U10G C12G C13A | 1.14

Variant | aptazyme ON/OFF ratio
U7C G9A U10C U11A C12U | 1.34
U7C G9A U10C U11A C12G | 1.14
U7C G9A U10C U11A C12A | 1.27
U7A U10C U11G C12A C13A | 1.28
U7A U10C U11G C12A C13G | 1.23
U7A U10C U11G C12A C13U | 1.26
U7C G9A U10C U11G C12G C13U | 1.09
U7C G9A U10C U11G C12G C13A | 1.14
U7C G9A U10C U11G C12G C13G | 1.11
U7C G9A U10C U11C C12U C13A | 1.04
U7C G9A U10C U11C C12U C13U | 1.07
U7C G9A U10C U11C C12U C13G | 1.04
U7C G9A U10A U11C C12G C13G | 1.46
U7C G9A U10A U11C C12G C13A | 1.27
U7C G9A U10A U11C C12G C13U | 1.12
U7A U10G U11C C12U C13G | 1.41
U7A U10G U11C C12U C13U | 1.21
U7A U10G U11C C12U C13A | 1.3
U7A U10G U11G C12U C13A | 1.33
U7A U10G U11G C12U C13U | 1.2
U7A U10G U11G C12U C13G | 1.23
U7A U10G U11C C12G C13G | 1.11
U7A U10G U11C C12G C13U | 1.34
U7A U10G U11C C12G C13A | 1.13

Variant | aptazyme ON/OFF ratio
U7C G9A U10A C12G | 1.18
U7C G9A U10A C12A | 1.15
U7C G9A U10A C12U | 1.35
U7C G9A U10C U11C | 1.12
U7C G9A U10C U11A | 2.6
U7C G9A U10C U11G | 1.42
U7A U10C U11A C12U C13U | 1.26
U7A U10C U11A C12U C13A | 1.17
U7A U10C U11A C12U C13G | 1.14
U7C G9A C12A C13A | 1.24
U7C G9A C12A C13G | 1.11
U7C G9A C12A C13U | 1.25
U7C G9A U10C C12G C13G | 1.26
U7C G9A U10C C12G C13A | 1.26
U7C G9A U10C C12G C13U | 1.15
U7C G9A U10A U11G C12A C13U | 1.15
U7C G9A U10A U11G C12A C13G | 1.11
U7C G9A U10A U11G C12A C13A | 1.08
U7A U11C C13A | 1.19
U7A U11C C13G | 1.07
U7A U11C C13U | 1.21
U7C G9A C12G C13G | 1.2
U7C G9A C12G C13A | 1.18
U7C G9A C12G C13U | 1.23

Variant | aptazyme ON/OFF ratio
U7A U10G C13U | 1.27
U7A U10G C13A | 1.31
U7A U10G C13G | 1.23
U7C G9A U10A C12G C13A | 1.35
U7C G9A U10A C12G C13U | 1.21
U7C G9A U10A C12G C13G | 1.18
U7A U11C C12A | 1.39
U7A U11C C12G | 1.08
U7A U11C C12U | 1.43
U7A U10G C12U C13U | 1.36
U7A U10G C12U C13G | 1.12
U7A U10G C12U C13A | 1.41
U7A U10G U11A | 1.06
U7A U10G U11C | 1.04
U7A U10G U11G | 1.27
U7C G9A U10A C13G | 1.03
U7C G9A U10A C13A | 1.23
U7C G9A U10A C13U | 1.34
U7C G9A U10G C12A C13A | 1.15
U7C G9A U10G C12A C13G | 1.08
U7C G9A U10G C12A C13U | 1.19
U7C G9A U10A U11G C12G C13A | 1.12
U7C G9A U10A U11G C12G C13U | 1.11
U7C G9A U10A U11G C12G C13G | 1.08

Variant | aptazyme ON/OFF ratio
U7C G9A U10G U11A C12A | 1.32
U7C G9A U10G U11A C12G | 1.21
U7A U11G C12A | 1.16
U7A U11G C12G | 1.27
U7A U11G C12U | 1.22
U7A U10G U11C C12G | 1.64
U7A U10G U11C C12A | 1.76
U7A U10G U11C C12U | 1.09
U7C G9A U10C C13G | 1.06
U7C G9A U10C C13A | 1.07
U7C G9A U10C C13U | 1.96
U7A U11G C12G C13A | 1.13
U7A U11G C12G C13U | 1.23
U7A U11G C12G C13G | 1.42
U7C G9A U10A U11G C12U | 1.31
U7C G9A U10A U11G C12A | 1.02
U7C G9A U10A U11G C12G | 1.15
U7C G9A U10A U11A C12G | 1.2
U7C G9A U10A U11A C12A | 1.24
U7C G9A U10A U11A C12U | 1.27
U7C G9A C13A | 1.05
U7C G9A C13U | 1.17
U7C G9A C13G | 1.03
